This assay concerns the target T1, Mouse TRAIL-R2-Fc (mouse, UniProt Q9QZM4 53-180).
T1 construct: mouse TRAIL-R2; Named in the materials only; source: bought: Sino Biological Inc. (50412-M03H)
Briefly: ELISA; Fc fusion proteins of human and mouse TRAIL receptors coated (200 ng/well); 40 nM scTRAIL units; detected with anti-FLAG-HRP; relative OD450. Conditions: both partners purified. A general note: ELISA stands for enzyme-linked immunosorbent assay.

T1 sequence (Q9QZM4 53-180): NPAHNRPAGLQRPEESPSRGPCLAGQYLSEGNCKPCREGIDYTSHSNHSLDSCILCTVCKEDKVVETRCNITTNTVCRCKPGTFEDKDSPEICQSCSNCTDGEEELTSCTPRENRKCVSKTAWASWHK

B1: Fc-scTRAIL (Fc fusion, human)
chain: GPQRVAAHITGTRGRSNTLSSPNSKNEKALGRKINSWESSRSGHSFLSNLHLRNGELVIHEKGFYYIYSQTYFRFQEEIKENTKNDKQMVQYIYKYTSYPDPILLMKSARNSCWSKDAEYGLYSIYQGGIFELKENDRIFVSVTNEHLIDMDHEASFFGAFLVGGGPQRVAAHITGTRGRSNTLSSPNSKNEKALGRKINSWESSRSGHSFLSNLHLRNGELVIHEKGFYYIYSQTYFRFQEEIKENTKNDKQMVQYIYKYTSYPDPILLMKSARNSCWSKDAEYGLYSIYQGGIFELKENDRIFVSVTNEHLIDMDHEASFFGAFLVGGGPQRVAAHITGTRGRSNTLSSPNSKNEKALGRKINSWESSRSGHSFLSNLHLRNGELVIHEKGFYYIYSQTYFRFQEEIKENTKNDKQMVQYIYKYTSYPDPILLMKSARNSCWSKDAEYGLYSIYQGGIFELKENDRIFVSVTNEHLIDMDHEASFFGAFLVG
notes: human TRAIL, first protomer of single-chain TRAIL (scTRAIL), amino acids 118-281; single glycine residue as linker between the TRAIL protomers; human TRAIL, second protomer of scTRAIL, amino acids 118-281; human TRAIL, third protomer of scTRAIL, amino acids 118-281; scTRAIL is fused to the C-terminus of the human gamma1 Fc; disulfide-linked dimer (hexavalent TRAIL); also called non-targeted …
B1: the binding result is “binds”.

These data come from PMC5834252, “Targeting scFv-Fc-scTRAIL fusion proteins to tumor cells” (Oncotarget, 2018).
